This assay has as its target T1, peptide 13 (TSESGELHGLTTE) (human, also: biotinylated, site not given here).
T1 construct: on the D-strand
T1 peptide: TSESGELHGLTTE
In words: ELISA: antibody titrated on NeutrAvidin-captured biotinylated peptide, non-linear regression. On the procedure:
ELISA assay was then utilized to identify the corresponding epitope(s) for each antibody. 5 μg/mL of NeutrAvidin (Pierce, USA) in 50 mM pH 9.6 sodium carbonate/bicarbonate buffer was used to coat 96-well Corning high-binding EIA/RIA plates. The plates were washed three times with TBST buffer and blocked with Superblock (Pierce, USA). Fifty to one hundred microliters of the biotinylated peptides were diluted with PBS to […] and added to each well and incubated at room temperature for one hour. […] After one hour room temperature incubation and washing steps, HRP-conjugated secondary antibody was applied. Goat-anti-mouse IgG or Fc HRP conjugates were used in the case of mouse monoclonal antibodies while goat-anti-rabbit IgG HRP conjugate antibody was used for rabbit polyclonal detection. TMB was used as the HRP substrate for the detections.

Ends that are not written are not given here.

B1: MFD108 (antibody, V domains shown)
VH: EVQLVESGGDLVKPGGSLKLSCAASGFTFSNYGMSWVRQTPDKRLEWVATITSGGSYTYYPDSVKGRFTISRDNAKNTLYLQMSSLKSEDTAMYYCARDGTAWFAYWGQGTLVTVSA
VL: DIQMTQTTSSLSASLGDRVTISCRASQDISNYLNWYQQKPDGTVKLLIYYTSRLHSGVPSRFSGSGSGTDYSLTISNLEEEDIATYFCQQGNTLRTFGGGTKLEIK
notes: Mouse monoclonal IgG1, kappa light chain; also called mouse monoclonal antibody MFD108; hybridoma ATCC PTA-120816
Regarding B1, the Kd (as a rule, the constant that tells how readily two partners part at equilibrium) was 0.25 nM.

For the origin of these results see US20180022797A1 (published 2018).
